Source: patent publication US20170029823A1, “TRUNCATED TRK B AND TRK C ANTAGONISTS AND USES THEREOF” (priority 2015, published 2017)
Entries after “also recorded” stand apart in the source; their conditions may differ.

How the values were obtained:
[1] = molecular target: T1, TrkC.T1 (Rattus norvegicus, UniProt Q03351); assay: p-Erk and p-Akt western blot after NT-3 stimulation in 293-TrkC.T1 cells; type: cell-based; settings: non-infected 293-TrkC.T1 cells, NT-3 4 nM for 10 min
T1 construct: expressed in transfected cells; host or cells: HEK293 (stably transfected subclone 293-TrkC.T1)
T1 sequence (Q03351 32-612 isoform Q03351-5 limits assumed): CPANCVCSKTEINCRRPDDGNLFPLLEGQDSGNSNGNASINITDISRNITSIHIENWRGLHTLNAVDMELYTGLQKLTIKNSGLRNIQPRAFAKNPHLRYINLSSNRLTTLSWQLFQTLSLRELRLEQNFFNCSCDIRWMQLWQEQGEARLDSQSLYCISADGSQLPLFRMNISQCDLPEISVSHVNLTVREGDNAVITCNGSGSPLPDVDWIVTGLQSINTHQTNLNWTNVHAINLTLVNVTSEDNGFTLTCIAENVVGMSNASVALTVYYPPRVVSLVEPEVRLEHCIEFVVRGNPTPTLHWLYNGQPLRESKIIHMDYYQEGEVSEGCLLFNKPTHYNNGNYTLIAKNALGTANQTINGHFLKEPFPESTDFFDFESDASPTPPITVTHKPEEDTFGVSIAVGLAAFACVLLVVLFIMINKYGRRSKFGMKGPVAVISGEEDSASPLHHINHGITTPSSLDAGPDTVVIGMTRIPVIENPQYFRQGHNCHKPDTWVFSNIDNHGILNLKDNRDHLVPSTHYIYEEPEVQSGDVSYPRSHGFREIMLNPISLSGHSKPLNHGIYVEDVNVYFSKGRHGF
Protocol: (§1) FIG. 15A-FIG. 15D illustrates TrkC.T1 directly activates MAPK/Erk in Müller cells. Representative western blots showing the levels of TrkC-FL (140 KDa), TrkC.T1 (110 kDa), p-Erk 1/2 (44 and 42 KDa) and p-Akt (60 KDa) in HEK293 cell expression system and rMC-1 cells, with or without stimulation of 4 nM NT-3 for 10 min. […] FIG. 15B, FIG. 15D Densitometric quantification of p-Erk and p-Akt signal standardized to untreated controls (arbitrary value of 1). The data represent relative protein levels±SEM. n=3 independent experiments. * p<0.05, ** p<0.01 and ***p<0.001.
(§2) HEK293 cells were transfected with human full-length TrkC cDNA (293-TrkC-FL) or with rat TrkC.T1 cDNA (293-TrkC.T1). The cells are stably transfected subclones that express high levels of TrkC-FL or TrkC.T1 receptors and are respectively grown under drug selection (0.5 mg/ml G418 or 1 mg/ml Puromycin).
(§3) All cells types were serum-starved for 1 hour. […]
(§4) Whole retinas either from culture or freshly dissected were collected and added to 200 μL lysis buffer (20 mM Tris-HCl pH 7.5, 137 mM NaCl, 2 mM EDTA, 1% Nonidet P-40) containing a protease inhibitor cocktail (Roche). […] Protein quantities were assessed using the Bradford assay (BioRad), and 40 μg of total protein was mixed with Laemmli buffer, boiled for 5 minutes and loaded onto 10% gels. […] Blots were scanned and quantified using ImageJ software. […]

[2] = molecular target: T2, TrkC-FL (Homo sapiens, UniProt Q16288); assay: p-Erk and p-Akt western blot after NT-3 stimulation in 293-TrkC-FL cells; type: cell-based; settings: NT-3 4 nM for 10 min
T2 construct: transfected with human full-length TrkC cDNA (293-TrkC-FL); expressed in transfected cells; host or cells: HEK293 (stably transfected subclone 293-TrkC-FL)
T2 sequence (Q16288 32-839): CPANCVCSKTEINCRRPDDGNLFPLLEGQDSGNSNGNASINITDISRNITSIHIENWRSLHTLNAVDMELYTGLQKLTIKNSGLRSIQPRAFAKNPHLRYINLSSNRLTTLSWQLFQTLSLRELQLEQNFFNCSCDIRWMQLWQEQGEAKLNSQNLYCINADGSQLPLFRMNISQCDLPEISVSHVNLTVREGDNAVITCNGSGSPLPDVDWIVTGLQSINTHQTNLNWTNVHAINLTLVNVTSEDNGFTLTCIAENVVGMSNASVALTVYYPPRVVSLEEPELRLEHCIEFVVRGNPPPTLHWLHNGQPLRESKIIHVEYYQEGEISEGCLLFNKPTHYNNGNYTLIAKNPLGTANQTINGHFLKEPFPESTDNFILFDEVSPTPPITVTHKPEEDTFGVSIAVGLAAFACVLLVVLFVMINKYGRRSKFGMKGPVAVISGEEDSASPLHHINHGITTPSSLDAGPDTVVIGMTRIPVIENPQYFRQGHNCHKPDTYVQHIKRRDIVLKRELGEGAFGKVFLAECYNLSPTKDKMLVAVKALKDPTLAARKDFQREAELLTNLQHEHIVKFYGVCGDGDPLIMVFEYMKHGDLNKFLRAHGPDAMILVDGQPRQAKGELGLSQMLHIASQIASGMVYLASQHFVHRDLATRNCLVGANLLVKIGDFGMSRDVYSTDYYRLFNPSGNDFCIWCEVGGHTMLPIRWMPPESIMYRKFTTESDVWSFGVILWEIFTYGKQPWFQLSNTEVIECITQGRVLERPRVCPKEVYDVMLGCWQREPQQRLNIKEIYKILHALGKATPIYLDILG
Protocol: as §1, §2, §3, §4

[3] = molecular target: T3, endogenous TrkC.T1 in rMC-1 cells (Rattus norvegicus, UniProt Q03351); assay: p-Erk and p-Akt western blot after NT-3 stimulation in rMC-1 cells; type: cell-based; settings: rMC-1 infected and rMC-1 wild-type cells, 4 nM NT-3 for 10 min
T3 construct: endogenous TrkC.T1 mRNA in r-MC-1 cells was silenced; endogenous in cells; host or cells: rMC-1 (Müller glial cell line)
T3 sequence (Q03351 32-612 isoform Q03351-5 limits assumed): as the sequence (Q03351 32-612 isoform Q03351-5 limits assumed) above
Protocol: as §1
A short hairpin RNA (shRNA) specifically targeting a unique 3′ sequence of the TrkC.T1 mRNA was designed using the DSIR algorithm. The TrkC.T1-targeting shRNA sequence […] (SEQ ID NO: 1), or a scrambled control sequence […] […] TrkC.T1-specific depletion was determined by real-time quantitative PCR and by Western blotting.
as §3, §4

[4] = test system: TNF-α; assay: TNF-α mRNA (PCR) and protein (ELISA) in rMC-1 cells; type: cell-based; settings: NT-3 (10 nM) or LPS (1 μg/ml) for 6 hrs
From the text: FIG. 7A-FIG. 7D illustrates development and validation of a TrkC.T1 inhibitor that prevents TrkC.T1-mediated induction of TNF-α FIG. 7A The mRNA levels of TrkC-FL and TrkC.T1 were quantified by PCR, after infection with lentivirus pLKO.Scr (scrambled control) or with pLKO.1 (expressing a unique shRNA (SEQ ID NO: 1) targeting TrkC.T1 mRNA specifically). Results are normalized to reference GAPDH mRNA. Data are expressed as the mean+SEM; n=3 independent experiments each in triplicate. […] FIG. 7B and FIG. 7C In rMC-1 cells the levels of TNF-α mRNA and protein were quantified by PCR or by ELISA after infection with pLKO.1TrkC.T1 or pLKOScr control. NT-3 and LPS treatment induce TNF-α and pLKO.1 prevents it. Data are standardized to untreated control. Average±sem, n=3 independent experiments each in triplicate. FIG. 7D In spinal cord of ALS G93A versus wild type mice the levels of TNF-α mRNA were assessed by quantitative PCR. Results were normalized to GAPDH. Data are expressed as the mean±SEM n=8 independent spinal cords per group. A-F t-test was applied for statistical analysis. * p<0.05, ** p<0.01 versus control. Stars with brackets indicate differences between the indicated groups.
In rMC-1 cells treatment with NT-3 (10 nM) or LPS (1 μg/ml) for 6 hrs increases TNF-α mRNA (FIG. 7B) and protein (FIG. 7C).

[5] = test system: p-Erk and p-Akt; assay: p-Erk and p-Akt immunohistochemistry in RHOP retinas after intravitreal injection; type: in vivo, mouse; settings: post-natal day 18, 24 h after intravitreal PD98059, vs vehicle-injected eye
Protocol: (§5) Intravitreal injections were performed as follows. Briefly, mice were anesthetized with isoflurane, delivered through a gas anesthetic mask. The drugs were delivered using a Hamilton syringe. Injections were done using a surgical microscope to visualize the Hamilton entry into the vitreous chamber and confirm delivery of the injected solution. After the injection, the syringe was left in place for 30 sec and slowly withdrawn from the eye to prevent reflux. Experimental right eyes were injected with the test agents and control left eyes serve as internal control.
All intravitreal injections delivered 2 μl of the MAPK/ERK inhibitor PD98059 (10 mM stock) or the selective-TrkC antagonist 3F (1 mM stock). Control eyes were injected with 50% DMSO for PD98059 assays or 5% DMSO for the compound 3F assays. Intravitreal injections in wild-type or RHOP-mice were made at post-natal day 17. Experimental time points to measure ONL thinning were set at post-natal days 18, 22, 24 and 28. The end point for analyzing the effect of the compounds on the expression of p-Erk and p-Akt was at post-natal day 18 (24 hours after intravitreal injection). […]
For each experimental condition, a minimum of 6 images were acquired from 3 sections cut from different areas of the retina (n=3-4 retinas per group). The area of the profiles of the cells expressing p-Akt and p-Erk was measured using ImageJ software. […]

[6] = test system: RHOP347S (RHOP) transgenic mouse model of retinitis pigmentosa; assay: ONL thickness by FD-OCT after intravitreal injection; type: in vivo; settings: PD98059 intravitreal at post-natal day 17
Protocol: as §5
All intravitreal injections delivered 2 μl of the MAPK/ERK inhibitor PD98059 (10 mM stock) or the selective-TrkC antagonist 3F (1 mM stock). Control eyes were injected with 50% DMSO for PD98059 assays or 5% DMSO for the compound 3F assays. Intravitreal injections in wild-type or RHOP-mice were made at post-natal day 17. Experimental time points to measure ONL thinning were set at post-natal days 18, 22, 24 and 28. The end point for analyzing the effect of the compounds on the expression of p-Erk and p-Akt was at post-natal day 18 (24 hours after intravitreal injection).
A noninvasive prototype spectrometer-based FD-OCT system was used to acquire the retinal images. FD-OCT is a noninvasive method that allows time-kinetic studies in the same animal, with axial resolution in tissue nominally better than 4 μm and repeatability of the measurements from B-scans better than 1 μm. Data acquisition was performed using custom software written in C++ for rapid frame grabbing, processing, and display of two-dimensional images. Manual segmentations were used to measure the thicknesses of the mice retinas. Mice were anesthetized using isoflurane/O2 and placed on a platform, and the head was oriented to an angle at which the eye was properly aligned to the optical beam. The pupils were dilated with a topical solution (atropine sulfate 1%; Alcon, Fort Worth, Tex.). Refraction of light at the cornea was cancelled by placing over the eye a generic artificial tear gel. Alignment of the optical system to the […] retina required a few minutes and was followed by rapid acquisition of data (about 5 s/vol). During retinal scanning, three volumes were acquired in different sectors of the retina containing the ON head as landmark.
After processing, three B-scans were randomly selected from each volume. The retinal thickness measurements were performed with Matlab software using the saved data. In each B-scan, the thickness of the nerve fiber layer (NFL)—ganglion cell layer (GCL)—inner plexiform layer (IPL), hereafter referred to as NGI and outer nuclear layer (ONL) was measured at three adjacent points. […]

[7] = molecular target: rat TrkC.T1 expressed on HEK293 cells (293-TrkC.T1) (rat) (UniProt Q03351); assay: cell-based or functional assay
Sequence of rat TrkC.T1 expressed on HEK293 cells (293-TrkC.T1) (rat) (Q03351 32-864): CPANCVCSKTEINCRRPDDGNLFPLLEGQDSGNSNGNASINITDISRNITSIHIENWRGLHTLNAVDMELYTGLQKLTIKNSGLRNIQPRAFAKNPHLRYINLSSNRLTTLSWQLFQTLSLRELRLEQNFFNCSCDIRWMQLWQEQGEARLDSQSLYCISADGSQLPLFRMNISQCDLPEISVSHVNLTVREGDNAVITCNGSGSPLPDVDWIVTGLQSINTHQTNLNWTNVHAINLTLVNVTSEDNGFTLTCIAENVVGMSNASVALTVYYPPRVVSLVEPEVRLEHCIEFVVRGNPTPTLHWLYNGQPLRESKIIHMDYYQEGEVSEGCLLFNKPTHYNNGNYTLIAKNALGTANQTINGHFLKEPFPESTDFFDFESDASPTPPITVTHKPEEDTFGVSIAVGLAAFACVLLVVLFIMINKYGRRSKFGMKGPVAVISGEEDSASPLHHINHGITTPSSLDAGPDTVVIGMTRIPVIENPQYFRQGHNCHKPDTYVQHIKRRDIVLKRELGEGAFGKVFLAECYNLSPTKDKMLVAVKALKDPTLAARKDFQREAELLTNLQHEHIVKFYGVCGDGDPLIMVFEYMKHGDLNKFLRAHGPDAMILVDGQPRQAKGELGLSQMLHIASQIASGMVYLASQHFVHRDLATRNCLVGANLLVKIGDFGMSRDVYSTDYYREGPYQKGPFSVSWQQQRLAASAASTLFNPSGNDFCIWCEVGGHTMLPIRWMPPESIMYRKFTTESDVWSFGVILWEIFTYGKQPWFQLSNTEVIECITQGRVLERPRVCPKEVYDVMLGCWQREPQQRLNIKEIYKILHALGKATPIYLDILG

[8] = molecular target: human full-length TrkC expressed on HEK293 cells (293-TrkC-FL) (human) (UniProt Q16288); assay: cell-based or functional assay
Sequence of human full-length TrkC expressed on HEK293 cells (293-TrkC-FL) (human) (Q16288 32-839): as the sequence (Q16288 32-839) above

neurotrophin-3 [NT-3]
increase in p-Erk levels [1]: ~2 fold | increase in p-Akt levels [2]: ~1.5 | increase in p-Erk [2]: ~2.5 fold | levels of p-Akt [3]: did not change | TNF-α mRNA and protein [4]: increases; also recorded: induce

COc1cccc(-c2cc(=O)c3ccccc3o2)c1N [PD98059]
block of p-Erk in Müller cells [5]: 030% | p-Erk signal (immunoreactivity) in Müller cells [5]: abolished; also recorded: reduced | ONL thickness vs vehicle-injected eye ([6]; RHOP mice, post-natal day 22 (did not reach significant values)): slightly bigger | ONL thickness vs vehicle-injected eye ([6]; RHOP mice, post-natal day 24): clear protective effect; also recorded: bigger | ONL thickness vs vehicle-injected eye ([6]; RHOP mice, post-natal day 28): still larger; also recorded: bigger | ONL thickness vs vehicle-injected eye ([6]; WT mice): No changes

B1: neurotrophin-3 (NT-3) (ligand, UniProt P20783 139-257, looked up)
chain: YAEHKSHRGEYSVCDSESLWVTDKSSAIDIRGHQVTVLGEIKTGNSPVKQYFYETRCKEARPVKNGCRGIDDKHWNSQCKTSQTYVRALTSENNKLVGWRWIRIDTSCVCALSRKIGRT
p-Erk level (Western blot densitometry) after 4 nM NT-3 for 10 min, non-infected 293-TrkC.T1 cells [7]: 2 fold | p-Akt level (Western blot densitometry) after 4 nM NT-3 for 10 min [8]: 1.5 fold | p-Erk level (Western blot densitometry) after 4 nM NT-3 for 10 min [8]: 2.5 fold
